Results: paper PMC9283937
Where “and” joins values, the source holds several entries; their conditions need not be identical. Identical values can stand only once.

Legend:
[1] = target: LarE from Thermotoga maritima, C-terminal His6-tagged (Thermotoga maritima); assay: SEC-MALS; Superdex 200 Increase 10/300 GL, 100 mM Tris-HCl pH 7.2, 300 mM NaCl, 0.5 ml/min; miniDAWN TREOS detector
[2] = target: LarE from Thermotoga maritima, C-terminal His6-tagged (Thermotoga maritima); assay: native MS; nondenaturing nano-ESI-MS (Q Exactive UHMR) under anoxic atmosphere; cluster-assembled His6-tagged LarETm after anaerobic incubation with IscSEc and L-cysteine; CID 15 eV

LarE from Thermotoga maritima, C-terminal His6-tagged (enzyme)
stoichiometry N [1]: 2
stoichiometry N [2]: 2 and 4 and 6
